“And” between values parts separate entries of the source, which are not always exact repeats. Equal entries are not always repeated.
Tests used:
[1] = target: HEPN^Lpg WT (HEPN toxin of the Legionella pneumophila HEPN–MNT module) (Legionella pneumophila Philadelphia 1) (UniProt Q5ZRG2); assay: crystal structure
[2] = target: HEPN^Lpg WT (HEPN toxin of the Legionella pneumophila HEPN–MNT module) (Legionella pneumophila Philadelphia 1) (UniProt Q5ZRG2); assay: AUC

MNT^Lpg (MNT antitoxin of the Legionella pneumophila HEPN–MNT module) (from UniProt Q5ZRG1 1-108) (enzyme)
stoichiometry N (MNT^Lpg per HEPN^Lpg chain (1:4)) [1]: 0.25

HEPN^Lpg WT (HEPN toxin of the Legionella pneumophila HEPN–MNT module) (from UniProt Q5ZRG2 1-139) (natural protein)
stoichiometry N [2]: 2 and 4 | stoichiometry N [1]: 4

— PMC11586414
